Numbered stars: 1 amine (or outer) side, 2 acyl side, 3 side chain; on linkers, the order of the positions; unused ones are H or OH. Bridge positions count the residues as written; N and C are the ends. Side chains are listed from the residue outwards. Ends that are not written are not given here. * marks the point of attachment. C20 diacid = O=C(O)CCCCCCCCCCCCCCCCCCC(=O)*; C18 diacid = O=C(O)CCCCCCCCCCCCCCCCC(=O)*; C16 diacid = O=C(O)CCCCCCCCCCCCCCC(=O)*; γGlu = O=C(O)[C@H](CCC(=O)[*:2])N[*:1]; C14 diacid = O=C(O)CCCCCCCCCCCCC(=O)*
T1: rat calcitonin receptor (rat, UniProt P32214 25-516)
T1 construct: whole, on cells; Membranes prepared from transiently transfected BHK tk'ts 13 cells; also called rCTR; rat calcitonin (a) receptor
T1 sequence (looked up): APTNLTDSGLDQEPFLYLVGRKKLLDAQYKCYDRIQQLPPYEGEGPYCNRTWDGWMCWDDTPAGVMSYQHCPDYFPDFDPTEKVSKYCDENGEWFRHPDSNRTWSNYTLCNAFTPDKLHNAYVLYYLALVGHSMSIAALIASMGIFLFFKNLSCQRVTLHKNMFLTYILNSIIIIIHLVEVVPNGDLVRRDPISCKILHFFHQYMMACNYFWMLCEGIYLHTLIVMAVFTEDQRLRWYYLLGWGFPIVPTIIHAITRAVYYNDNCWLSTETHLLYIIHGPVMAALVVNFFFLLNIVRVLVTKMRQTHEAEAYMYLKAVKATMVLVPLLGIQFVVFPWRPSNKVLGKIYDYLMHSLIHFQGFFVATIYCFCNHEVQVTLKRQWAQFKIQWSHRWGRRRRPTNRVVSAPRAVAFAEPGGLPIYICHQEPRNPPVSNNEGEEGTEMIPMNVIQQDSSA

T2: rat amylin receptor (rat calcitonin receptor + rat RAMP 3) (rat, UniProt P32214 25-516; Q9JJ73 23-147)
T2 construct: whole, on cells; Membranes prepared from transiently transfected BHK tk'ts 13 cells; also called rAmylin-R; rat amylin 3(a) receptor
T2 sequence (looked up) 1: T1 sequence (looked up)
T2 sequence (looked up) 2: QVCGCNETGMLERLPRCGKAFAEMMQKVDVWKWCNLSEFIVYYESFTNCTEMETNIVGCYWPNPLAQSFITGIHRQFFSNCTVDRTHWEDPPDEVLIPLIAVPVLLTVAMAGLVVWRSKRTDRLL

T3: human calcitonin receptor (human, UniProt P30988 25-474)
T3 construct: whole, on cells; Membranes from stably transfected BHK cells; also called hCTR; hCT
T3 sequence (looked up): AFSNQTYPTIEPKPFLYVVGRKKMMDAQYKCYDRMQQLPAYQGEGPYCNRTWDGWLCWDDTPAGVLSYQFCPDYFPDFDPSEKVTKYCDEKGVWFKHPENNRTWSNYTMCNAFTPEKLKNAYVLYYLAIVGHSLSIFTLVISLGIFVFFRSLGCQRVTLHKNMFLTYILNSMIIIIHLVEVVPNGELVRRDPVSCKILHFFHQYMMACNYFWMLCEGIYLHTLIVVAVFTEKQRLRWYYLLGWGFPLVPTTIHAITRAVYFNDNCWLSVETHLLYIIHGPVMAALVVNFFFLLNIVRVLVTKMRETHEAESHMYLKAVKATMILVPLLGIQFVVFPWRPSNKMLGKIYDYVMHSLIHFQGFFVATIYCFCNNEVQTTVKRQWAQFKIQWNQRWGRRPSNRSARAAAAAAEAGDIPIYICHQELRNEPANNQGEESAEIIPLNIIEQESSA

B1: N^ε1-[(4S)-4-carboxy-4-(13-carboxytridecanoylamino)butanoyl]-[Arg17,Pro21,Pro27,His34]-h-amylin (peptide)
peptide: K([γGlu-C14 diacid])CNTATCATQRLANFLRHSSPNFGAIPSSTNVGHNTY-NH2
modifications: disulfide 2-7; N-terminus assumed
SMILES: CC[C@H](C)[C@H](NC(=O)[C@H](C)NC(=O)CNC(=O)[C@H](Cc1ccccc1)NC(=O)[C@H](CC(N)=O)NC(=O)[C@@H]1CCCN1C(=O)[C@H](CO)NC(=O)[C@H](CO)NC(=O)[C@H](Cc1c[nH]cn1)NC(=O)[C@H](CCCNC(=N)N)NC(=O)[C@H](CC(C)C)NC(=O)[C@H](Cc1ccccc1)NC(=O)[C@H](CC(N)=O)NC(=O)[C@H](C)NC(=O)[C@H](CC(C)C)NC(=O)[C@H](CCCNC(=N)N)NC(=O)[C@H](CCC(N)=O)NC(=O)[C@@H](NC(=O)[C@H](C)NC(=O)[C@@H]1CSSC[C@H](NC(=O)[C@@H](N)CCCCNC(=O)CC[C@H](NC(=O)CCCCCCCCCCCCC(=O)O)C(=O)O)C(=O)N[C@@H](CC(N)=O)C(=O)N[C@@H]([C@@H](C)O)C(=O)N[C@@H](C)C(=O)N[C@@H]([C@@H](C)O)C(=O)N1)[C@@H](C)O)C(=O)N1CCC[C@H]1C(=O)N[C@@H](CO)C(=O)N[C@@H](CO)C(=O)N[C@H](C(=O)N[C@@H](CC(N)=O)C(=O)N[C@H](C(=O)NCC(=O)N[C@@H](Cc1c[nH]cn1)C(=O)N[C@@H](CC(N)=O)C(=O)N[C@H](C(=O)N[C@@H](Cc1ccc(O)cc1)C(N)=O)[C@@H](C)O)C(C)C)[C@@H](C)O
B2: N^ε1-[(4S)-4-carboxy-4-(15-carboxypentadecanoylamino)butanoyl]-[Arg17,Pro21,Pro27,His34]-h-amylin (peptide)
peptide: K([γGlu-C16 diacid])CNTATCATQRLANFLRHSSPNFGAIPSSTNVGHNTY-NH2
modifications: disulfide 2-7; N-terminus assumed
SMILES: CC[C@H](C)[C@H](NC(=O)[C@H](C)NC(=O)CNC(=O)[C@H](Cc1ccccc1)NC(=O)[C@H](CC(N)=O)NC(=O)[C@@H]1CCCN1C(=O)[C@H](CO)NC(=O)[C@H](CO)NC(=O)[C@H](Cc1c[nH]cn1)NC(=O)[C@H](CCCNC(=N)N)NC(=O)[C@H](CC(C)C)NC(=O)[C@H](Cc1ccccc1)NC(=O)[C@H](CC(N)=O)NC(=O)[C@H](C)NC(=O)[C@H](CC(C)C)NC(=O)[C@H](CCCNC(=N)N)NC(=O)[C@H](CCC(N)=O)NC(=O)[C@@H](NC(=O)[C@H](C)NC(=O)[C@@H]1CSSC[C@H](NC(=O)[C@@H](N)CCCCNC(=O)CC[C@H](NC(=O)CCCCCCCCCCCCCCC(=O)O)C(=O)O)C(=O)N[C@@H](CC(N)=O)C(=O)N[C@@H]([C@@H](C)O)C(=O)N[C@@H](C)C(=O)N[C@@H]([C@@H](C)O)C(=O)N1)[C@@H](C)O)C(=O)N1CCC[C@H]1C(=O)N[C@@H](CO)C(=O)N[C@@H](CO)C(=O)N[C@H](C(=O)N[C@@H](CC(N)=O)C(=O)N[C@H](C(=O)NCC(=O)N[C@@H](Cc1c[nH]cn1)C(=O)N[C@@H](CC(N)=O)C(=O)N[C@H](C(=O)N[C@@H](Cc1ccc(O)cc1)C(N)=O)[C@@H](C)O)C(C)C)[C@@H](C)O
B3: N^ε1-[(4S)-4-carboxy-4-(17-carboxyheptadecanoylamino)butanoyl]-[Arg17,Pro21,Pro27,His34]-h-amylin (peptide)
peptide: K([γGlu-C18 diacid])CNTATCATQRLANFLRHSSPNFGAIPSSTNVGHNTY-NH2
modifications: disulfide 2-7; N-terminus assumed
SMILES: CC[C@H](C)[C@H](NC(=O)[C@H](C)NC(=O)CNC(=O)[C@H](Cc1ccccc1)NC(=O)[C@H](CC(N)=O)NC(=O)[C@@H]1CCCN1C(=O)[C@H](CO)NC(=O)[C@H](CO)NC(=O)[C@H](Cc1c[nH]cn1)NC(=O)[C@H](CCCNC(=N)N)NC(=O)[C@H](CC(C)C)NC(=O)[C@H](Cc1ccccc1)NC(=O)[C@H](CC(N)=O)NC(=O)[C@H](C)NC(=O)[C@H](CC(C)C)NC(=O)[C@H](CCCNC(=N)N)NC(=O)[C@H](CCC(N)=O)NC(=O)[C@@H](NC(=O)[C@H](C)NC(=O)[C@@H]1CSSC[C@H](NC(=O)[C@@H](N)CCCCNC(=O)CC[C@H](NC(=O)CCCCCCCCCCCCCCCCC(=O)O)C(=O)O)C(=O)N[C@@H](CC(N)=O)C(=O)N[C@@H]([C@@H](C)O)C(=O)N[C@@H](C)C(=O)N[C@@H]([C@@H](C)O)C(=O)N1)[C@@H](C)O)C(=O)N1CCC[C@H]1C(=O)N[C@@H](CO)C(=O)N[C@@H](CO)C(=O)N[C@H](C(=O)N[C@@H](CC(N)=O)C(=O)N[C@H](C(=O)NCC(=O)N[C@@H](Cc1c[nH]cn1)C(=O)N[C@@H](CC(N)=O)C(=O)N[C@H](C(=O)N[C@@H](Cc1ccc(O)cc1)C(N)=O)[C@@H](C)O)C(C)C)[C@@H](C)O
B4: N^ε1-[(4S)-4-carboxy-4-(19-carboxynonadecanoylamino)butanoyl]-[Ala14,Arg17,Pro21,Pro27,Pro34]-h-amylin (peptide)
peptide: K([γGlu-C20 diacid])CNTATCATQRLAAFLRHSSPNFGAIPSSTNVGPNTY-NH2
modifications: disulfide 2-7; N-terminus assumed
SMILES: CC[C@H](C)[C@H](NC(=O)[C@H](C)NC(=O)CNC(=O)[C@H](Cc1ccccc1)NC(=O)[C@H](CC(N)=O)NC(=O)[C@@H]1CCCN1C(=O)[C@H](CO)NC(=O)[C@H](CO)NC(=O)[C@H](Cc1c[nH]cn1)NC(=O)[C@H](CCCNC(=N)N)NC(=O)[C@H](CC(C)C)NC(=O)[C@H](Cc1ccccc1)NC(=O)[C@H](C)NC(=O)[C@H](C)NC(=O)[C@H](CC(C)C)NC(=O)[C@H](CCCNC(=N)N)NC(=O)[C@H](CCC(N)=O)NC(=O)[C@@H](NC(=O)[C@H](C)NC(=O)[C@@H]1CSSC[C@H](NC(=O)[C@@H](N)CCCCNC(=O)CC[C@H](NC(=O)CCCCCCCCCCCCCCCCCCC(=O)O)C(=O)O)C(=O)N[C@@H](CC(N)=O)C(=O)N[C@@H]([C@@H](C)O)C(=O)N[C@@H](C)C(=O)N[C@@H]([C@@H](C)O)C(=O)N1)[C@@H](C)O)C(=O)N1CCC[C@H]1C(=O)N[C@@H](CO)C(=O)N[C@@H](CO)C(=O)N[C@H](C(=O)N[C@@H](CC(N)=O)C(=O)N[C@H](C(=O)NCC(=O)N1CCC[C@H]1C(=O)N[C@@H](CC(N)=O)C(=O)N[C@H](C(=O)N[C@@H](Cc1ccc(O)cc1)C(N)=O)[C@@H](C)O)C(C)C)[C@@H](C)O
notes: also called compound 94

These binders were tested against T1, rat calcitonin receptor (assay: SPA competition vs 125I-calcitonin, membranes (Assay VIII)).
B1 was tested, and the IC50 was 707 nM. With B2 the IC50 was 404 nM. For B3, the IC50 was 47 nM. Work on B4 yielded an IC50 of 111 nM.

The binders below were run against T1, rat calcitonin receptor (assay: ratio of IC50 on rat calcitonin receptor to IC50 on rat amylin receptor).
B1 was tested, and the “Ratio rCT/rAmylin binding” value was 280. In the case of B2, the “Ratio rCT/rAmylin binding” value is reported as 327. With B3 the “Ratio rCT/rAmylin binding” value was 40.3. For B4, the “Ratio rCT/rAmylin binding” value was 280.

The binders below were run against T2, rat amylin receptor (rat calcitonin …) (assay: SPA competition vs 125I-rat amylin, membranes (Assay VI)).
With B1 the IC50 was 2.52 nM. In the case of B2, the IC50 is reported as 1.24 nM. B3 was tested, and the IC50 was 1.17 nM. For B4, the IC50 was 0.397 nM.

These binders were tested against T3, human calcitonin receptor (assay: ratio of IC50 on human calcitonin receptor to IC50 on human amylin receptor).
Method: The resulting pellet was resuspended, homogenized and centrifuged (20.000 rpm, 15 min) in a buffer containing 20 mM Na-HEPES and 0.1 mM EDTA (pH 7.4, buffer 2). The resulting pellet was resuspended in buffer 2 and protein concentration was measured (BCA protein Assay, Pierce). The homogenate was kept cold during the whole procedure. The membranes were kept at −80° C. until use. The assay was performed in a 384 well Optiplate (PerkinElmer) in a total volume of 40 ul. Membranes were mixed with SPA beads. Final concentration of membranes 35 ng/μL final and SPA beads was 0.05 mg/well. Test-compounds were dissolved in DMSO and further diluted in assay buffer (50 mM Hepes, pH 7.4, 1 mM CaCl2, 5 mM MgCl₂, 0.1% OA and 0.02% Tween20). […] The final mixture was incubated with shaking at 400 rpm for 120 min at 25° C. prior to centrifugation (1500 rpm, 10 min). Samples were analyzed on TopCounter™ (Packard). The IC₅₀ was calculated using (one site binding competition analysis) GraphPad Prism5 as a measure of receptor affinity.
Membranes were prepared in the following way; the cells were rinsed with PBS and incubated with Versene for approximately 5 min before harvesting. The cells were flushed with PBS and the cell-suspension was centrifuged for 5 min at 1000 rpm. Cells were homogenized (Ultrathurrax) in a buffer containing 20 mM Na-HEPES and 10 mM EDTA (pH 7.4) and centrifuged at 20.000 rpm for 15 min. The resulting pellet was resuspended, homogenized and centrifuged (20.000 rpm, 15 min) in a buffer containing 20 mM Na-HEPES and 0.1 mM EDTA (pH 7.4, buffer 2). The resulting pellet was resuspended in buffer 2 and protein concentration was measured (BCA protein Assay, Pierce). The homogenate was kept cold during the whole procedure. The membranes were kept at −80° C. until use. Assay was performed in a 384 well Optiplate (PerkinElmer) in a total volume of 40 ul. Membranes were mixed with SPA beads.
For B1, the “Ratio hCT/hAmylin binding” value was 23.5. In the case of B2, the “Ratio hCT/hAmylin binding” value is reported as 18.5. B3 was tested, and the “Ratio hCT/hAmylin binding” value was 59.4. In the case of B4, the “Ratio hCT/hAmylin binding” value is reported as 46.3.

Source: patent US20140087995A1 (published 2014)
